Where a name gives a salt, the structure may show the parent alone.
T1: L-threonine dehydrogenase (TDH) (Escherichia coli, UniProt P07913)
T1 sequence (P07913 1-341): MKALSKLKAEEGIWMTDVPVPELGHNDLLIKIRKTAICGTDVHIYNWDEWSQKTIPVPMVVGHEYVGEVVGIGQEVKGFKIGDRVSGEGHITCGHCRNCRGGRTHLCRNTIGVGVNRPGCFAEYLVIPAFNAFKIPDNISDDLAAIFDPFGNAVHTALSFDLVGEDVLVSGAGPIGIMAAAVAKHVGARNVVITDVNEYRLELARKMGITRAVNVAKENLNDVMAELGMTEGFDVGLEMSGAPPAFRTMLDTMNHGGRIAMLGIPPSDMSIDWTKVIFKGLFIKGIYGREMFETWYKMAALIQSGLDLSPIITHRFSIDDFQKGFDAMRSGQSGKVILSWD

B1: L-threonine dehydrogenase (TDH) (Escherichia coli K-12) (protein)
chain: MKALSKLKAEEGIWMTDVPVPELGHNDLLIKIRKTAICGTDVHIYNWDEWSQKTIPVPMVVGHEYVGEVVGIGQEVKGFKIGDRVSGEGHITCGHCRNCRGGRTHLCRNTIGVGVNRPGCFAEYLVIPAFNAFKIPDNISDDLAAIFDPFGNAVHTALSFDLVGEDVLVSGAGPIGIMAAAVAKHVGARNVVITDVNEYRLELARKMGITRAVNVAKENLNDVMAELGMTEGFDVGLEMSGAPPAFRTMLDTMNHGGRIAMLGIPPSDMSIDWTKVIFKGLFIKGIYGREMFETWYKMAALIQSGLDLSPIITHRFSIDDFQKGFDAMRSGQSGKVILSWD

Experiments:
[1] = target: T1, L-threonine dehydrogenase (TDH); test: fluorimetric NADH formation assay, titration at […] L-Thr and […] NAD+; also affinity chromatography from E. coli lysate on immobilized compound […]; assay type: biochemical
purified protein [2] = substrate: C[C@@H](O)[C@H](N)C(=O)O; test: purified protein; assay type: biochemical, Escherichia coli; details: NAD+; Zn2+ cooperative binding of L-Thr; pH 8.4; 25.0 °C
purified protein [3] = substrate: NC(=O)c1ccc[n+]([C@@H]2O[C@H](COP(=O)([O-])OP(=O)(O)OC[C@H]3O[C@@H](n4cnc5c(N)ncnc54)[C@H](O)[C@@H]3O)[C@@H](O)[C@H]2O)c1; test: purified protein; assay type: biochemical, Escherichia coli; details: Zn2+ non-cooperative binding; pH 8.4; 25.0 °C; varied: cofactor

Molecule	EC50 [1] [µM]	K0.5 (purified protein [2]) [µM]	Vmax (purified protein [2]) [µM/min]	K0.5 (purified protein [3]) [µM]	Vmax (purified protein [3]) [µM/min]
NCCc1c[nH]n(-c2ccccn2)c1=O [compound 1, 4-(2-aminoethyl)-2-(pyridin-2-yl)-1,2-dihydro-3H-pyrazol-3-one dihydrochloride]	50 ± 10				
B1		280 ± 10	6	43 ± 3	3.42
